Assay: label from the status in PepcDB records

Sequence	protein production
MAHEAQKAIARNSLLIRSLPEQHVDALLSQAVWRSYDRGETLFLQEEKAQAIHVVIDGWVKLFRMTPTGSEAVVSVFTRGESFGEAVALRNTPYPVSAEAVTPCEVMHIPSPVFVSLMRRDPEICISILATTFGHLHSLVAQLEQLKAQTGAQRVAEFLLELCDCDTGACEVTLPYDKMLIAGRLGMKPESLSRAFSRLKAAGVTVKRNHAEIEDIALLRDYAESDPADSWSKS	not failed
MAHGIPSQGKVTITVDEYSSNPTQAFTHYNINQSRFQPPHVHMVDPIPYDTPKPAGHTRFVCISDTHSRTDGIQMPYGDILLHTGDFTELGLPSEVKKFNDWLGNLPYEYKIVIAGNHELTFDKEFMADLVKQDYYRFPSVSKLKPEDFDNVQSLLTNSIYLQDSEVTVKGFRIYGAPWTPWFNGWGFNLPRGQSLLDKWNLIPEGIDILMTHGPPLGFRDWVPKELQRVGCVELLNTVQRRVRPKLHVFGGIHEGYGIMTDGYTTYINASTCTVSFQPTNPPIIFDLPNPQGS	failed
MAHGPTRQKITLTTEVAAEPAEVWARIGDFQDMSWHPAVHSSTGENGNEIDATRVLSLGAADGPTISEILYKYSDEKMSYSYRITDVLVEVLPVTNYSSHLTVKARDGGGSVIEWRGAFYRGYPNNDPPEDLEHHHHHH	failed
MAHHHHHHMRKIYIAGPAVFNPDMGASYYNKVRELLKKENVMPLIPTDNEATGALDIRQKNIQMIKDCDAVIADLSPFRGHEPDCGTAFEVGYAAALNKMVLTFTSDRRNMREKYGSEVDKDNLRVEGFGLPFNLMLYDGVEVFDSFESAFKYFLANFPSK	not failed
MAHHHHHHSLDAAAATLPRKSGSVDRLVRLAEADMAGVNRLITDRMQSDVAIIPALAEHLIAAGGKRLRPLMTVAAARLAGADNDHFQKLAAAVEFIHTATLLHDDVVDGSQLRRGKVAAHLIWGGAQSVLVGDFLFARAFELMVETNSMKALEILARASRVIAEGEVLQLMRSHDLNLSQAVYLEIIQAKTAELFAAASEAGAVSAGVDVAKSEALRDYGLNLGLAFQLADDALDYGGATETLGKNAGDDFREGKATLPLLLAIARSGPREAEFWERAIGRREQTEADFRRARELIIGSGALDATLDLAADYADKAKAALAMFPANDWREALEELADFAVSRRA	not failed
MAHKKGLGSTRNGRDSQAKRLGVKRYEGQVVRAGNILVRQRGTRFKPGKNVGMGRDFTLFALVDGVVEFQDRGRLGRYVHVRPLA	not failed
MAIAFHTFLLQLLLFFFASFAEANDSRKTYLVQMKVGGHRYGSSSGHQELLGEVLDDDSYKESFTGFSASLTPRERQKLMSKTTTVSSRRREVLEVSRSRNLKLQTTRSWDFMNLTLKAERNPENESDLVVAVIDSGIWPYSELFGSDSPPPPGWENKCENITCNNKIVGARSYYPKKEKYKWVEEKSVIDVTGHGTHVASIVAGRKVEKAGYFGLAEGTMRGGVPNAKIAVYKTCWRVIRKNGREDSVCREDNILKAIDDAIADKVDIISYSQGFQFTPLQKDKVSWAFLRALKNGILTSAAAGNYANNGKFYYTVANGAPWVMTVAASLKDRIFETKLELEGEDKPIIVYDTINTFETQDSFYPLLNEKAPPESTRKRELIAERNGYSILSNYDEKDKGKDVFFEFAQINLLDEAIKEREKGAIVLGGKSYDFNESIKLQFPIASIFLDEQKKGKLWDYYKKDQSKERLAKIHKTEEIPREEGWVPTVAHLSSRGPNCDSFLANILKNSHMNNCFQPDIAAPGLDIIAGWPENVKLSSDRPANDYRHLRFNIMSGTSMACPHATGLALYLKSFKRWSPSAIKSALMTTSSEMTDDDNEFAYGSGHLNATKVRDPGLVYETHYQDYIDYLCKLGYNTEKLRSHVGSDKIDCSKTEIDHDADLNYPTMTARVPLPLDTPFKKVFHRTVTNVNDGEFTYLREINYRGDKDFDEIIVDPPQLKFSELGETKTFTVTVTGISKRNWNKNRAFMTRNTWLTWTEKDGSRQVRSPIVIYSIKGPKACM	failed
MAIATARAGGKETGTEQMYILQVTNSRSTMSKMSNVKEVNASTAFSMIKKGALLVDVRETREINRKAFGVSDYLSVPMSRFQSSLHEIPAERKVILACHSGNRSSIASRILVNSGHRKVHNLQHGIISWEREGLPVRKKESPSPLTMLFQMFRKEA	failed
MAIGRLGYLVRGAWAGGVMLLAAGSAWAAPNWPLAPYSYYAQQQSLSDVLREFAAGFSLALQQGKGVQGVVNGRFNARTPTEFIERLSGIYGFNWFVHAGTLYVSRTSDVVTRAVDAAGASPSALRQALLQLGILDERFGWGELPAQGVAMVSGPPAYVALVEQAVAALPKGAGNQQVAVFRLKHASVSDRVIRYRDQQVVTPGMATMLRQLILGAGPGNDAALAAVAAPLRENPPVFGDAAADGNAPLAGAAQAAGRRLSEPSVQADTRLNALIVQDIPERMPIYRALIEQLDVPSTLIEIEAMIVDVNTDLVNELGVTWGAQIGTTSLGYGDLGLRPGNGLPVDGAAADLAPGTLGISVSTRLAARLRALESDGQANILSQPSILTADNLGAMIDLSDTFYIRTLGERVATVTPVTVGTSLRVTPRYIAAKGGRQVELAIDIEDGRVLQEYPIDGLPRVRKSSISTLAVVGDEQTLLIGGYNNRRDEEQVEKVPLLGDIPGLGFLFSSKSRAVQRRERLFLIRPRVVAIEGKPVFSPVAGTSQVFMSTGWGGHGSSLSIAPGEGGHTQVRHDARAGRPVRLVPDSLHVEYGEAGEASP	failed
MAILHGSWILNEQESCLFIWGETWRSPQVDFNFAEISLNPLALSALELSEWLQSQHQAIAKLLPQQLEKRTSKAASSVKINLLTHSQIIALPTEISQPRKKETILISPVHSAALASESDSEVYLQTWRVEGFCLPPSAAIKLLTSLPLNITSGENAFLGGDLRFWSQIARWSLDLISRSKFLPIIQRQPNNSVSAKWQVLLDSAVDGTRLEKFAAKMPLVCRTYQEIGSGESPIYIDFPSQPQDLILGFLNSAIDTQLREMVGNQPVVETRLMASLPSAVRQWLQALIAASNSIDADAVGLERLEAALKAWTMPLQYQLASKNQFRTCFELRSPEPDETEWTLAYFLQAADDPEFLVDAATIWQNPVEQLIYQQRTIEEPQETFLRGLGLASRLYPVIAPTLDTESPQFCHLKPMQAYEFIKAVAWRFEDSGLGVILPPSLANREGWANRLGLKISAETPKKKPGRLGLQSLLNFQWHLAIGGQTISKAEFDRLVALKSPLVEINGEWVELRPQDIKTAEAFFTARKDQMALSLEDALRLSSGDTQVIEKLPVVSFEASGALQELIGALTNNQAVAPLPTPKNFQGQLRPYQERGAAWLAFLERWGLGACLADDMGLGKTIQFIAFLLHLKEQDVLEKPTLLVCPTSVLGNWEREVRKFAPTLKVLQYHGDKRPKGKAFQEAVKKHDLVITSYSLIHRDIKSLQGIPWQIIVLDEAQNVKNAEAKQSQAVRQLETTFRIALTGTPVENRLQELWSILDFLNPGYLGNKQFFQRRFAMPIEKYGDAASLNQLRALVQPFILRRLKTDRDIIQDLPDKQEMTVFCGLTGEQAALYQKAVETSLAEIESAEGLQRRGMILALLIKLKQICNHPAQYLKINTLEQHSSGKLQRLEEMLEEVLAESNTYGVAGAGRALIFTQFAEWGKLLKPHLEKQLGREIFFLYGGTSKKQREEMIDRFQHDPQGPPIMILSLKAGGVGLNLTRANHVFHFDRWWNPAVENQATDRVFRIGQTRNVQVHKFVCNGTLEEKIHDMIESKKQLAEQVVGAGEEWLTELDTDQLRNLLILDRSTVIDEEAD	failed
MAILVTGSTGTIGSQVLAHLQGHNVEVRALTRSPETAQFPAGVTAVRGDLADPDSVRAALRGVSTLFLLAPNVADELTQAMLTLTVAREAGVKGIVYLSVFGGDGYADVPHFAGKYTVERMIEALDLPATILRPAYFIQNDLRQKDGLLKTGVYGSPIGKKGVSMVDIRDIGEAAAIELLRREQAATPLGRETYALVGPDSLTGEGIATIWREALGRAIRHGGDDLVVMEQRTKTMLPAWHALDLRLMFSRYQTEGAVATADDIERLTKLLGHAPRSYTAFARDAAAQWTKG	failed
MAIQFIVSNKYTAEVSKQLNDSQNWVLDSGIYYEDHNNHIVSSPINSATKPQNTREEWLWIPPHCQVVVCSTSSLKSFLGCKASEDLDRVFGDHPLWLDQLRPLSNLLENSLIDLLSRAPFEQSSKRNIQSMERGNPVMNWNVMQVEEEDTRGEQRVAASSSLSSSFDWNTFLRDRCGLSEEDVAYCFRKLSRFGRVSLSRLNEDSLLRMGINDPTVIAKLLIGITEEFS	failed
MAIQKGDFIKLNYTGRFEDGRIFDTTDEELAKKEEIFNPRGLYGGDVVIVGAGHTIEGLDEDLEGKEAGYSSTVTIPPEKAFGLSNSKLVETVSITKFQDRNVHPGLPVELEGKRGVVSRVIGRKVTVDFNSPLAGKTVSYEYTIEKLLEDDVEMIQGLLALYTGMRDMEVEITDGVAKIYVPTGLTFNQRWLMAKNRVVSELFKYAGLKEVQLIEKLTAEAEAPVPAEPEVEAEAEAEAEVEAEVKEETSESHE	failed
MAISDANRGGAPGAAPGPDPAHILHELAGLMAISPGRDFLDELVNRAVQRLGVDYAWVVLHGAKGEHARTVLSANCRMRWNGAESYLATGQSALAGVLSHATQYVCARDLERHVPGDLALRRLGAQACVAHALRDESGLQRGHVAFVFSEPLADPAIYVSALSACAAFTERAVLALDAERKARQEALQLASRYQALFEKAPVLINAFDARGKCILWNLECERKFGWSMEEVNNHPEPLALFYPDPQTRARVVASVSQAPGRAFEEWHPVTRAGKVLSTLWSNIVLESGTIVNIGLDITERKRAELALTRLATIDSLTDCWNRAEILKILRQEITRLRQHPDQPLAVVMLDLDHFKQLNDLHGHLVGDAALRYFSDQLRSNLRGTDFVGRIGGEEFLALLPGCDGDAALAMADRLRAALRNDPFTTEGQAAPLSVSVGIAFATPEDTAVSDVMRRADTALYEAKRRGRDRAVVYFG	failed
MAKAQTVTILSPVNGDVIALNKVKDPVFSAGMMGLGFGVQPSSGEVVAPVSGQVTMVAETKHAIGFTTPDDHLEVLVHLGIDTVDLKGAPFTVKVAAGDDVQAGDVIATMDLAAIQAANRQTTVILAVTNTSDKLESLDVVTGAKAAGDVTATGRLNANTFNAKRQNRLPKAGKYDQLAADIVANVGGVENVSSLIHCITRLRFYLKDESKANDDVVRDLKGVIDVAKAGGQYQVVIGPAVTDVYDAIIKQIGPGFSNDSETAKAVAETAAAAQRPTTPWGKVKWGISNLIGVITGSMIPVIGLLAASGILKGILALLTTFNLVSPTAPTYVIINAMGDSVFYFLPIFVGFTAGKKLGADPVIMGIIGGVLTYPAIVTMASGKATSTLLGMGINANFFGLPVHVASYTYSIFPMIAGAWLASKLEPWLKRVIPTVLRMIFVPLFEVVIVSGAILLFLGPIITVLSTGLANIIVWVYNLSPAISGLIIGGFYQVLVIFGLHWAVIPIVANDIATTGHSYLNAIVSATMVAQGGAVFAIALKSKLANIQELAWPATISAFCGVTEPAMYGINLKYGRAFVTASIGAAVGGFLTGLMNVNMWGFTGSLIGFTSFVNPKGLDFSFYGFLIASAATIVVSFALTWMFGFKDEDANAVKVAPKKRHLGATA	failed
MAKEIKFSDSARNLLFEGVRQLHDAVKVTMGPRGRNVLIQKSYGAPSITKDGVSVAKEIELSCPVANMGAQLVKEVASKTADAAGDGTTTATVLAYSIFKEGLRNITAGANPIEVKRGMDKAAEAIINELKKASKKVGGKEEITQVATISANSDHNIGKLIADAMEKVGKDGVITVEEAKGIEDELDVVEGMQFDRGYLSPYFVTNAEKMTAQLDNAYILLTDKKISSMKDILPLLEKTMKEGKPLLIIAEDIEGEALTTLVVNKLRGVLNIAAVKAPGFGDRRKEMLKDIAILTGGQVISEELGLSLENAEVEFLGKAGRIVIDKDNTTIVDGKGHSHDVKDRVAQIKTQIASTTSDYDKEKLQERLAKLSGGVAVIKVGAASEVEMKEKKDRVDDALSATKAAVEEGIVIGGGAALIRAAQKVHLNLHDDEKVGYEIIMRAIKAPLAQIAINAGYDGGVVVNEVEKHEGHFGFNASNGKYVDMFKEGIIDPLKVERIALQNAVSVSSLLLTTEATVHEIKEEKAAPAMPDMGGMGGMGGMGGMM	failed
MAKELYVGHMSYEATEDDLRRLFSVAGTVTSVHIITDPETGRSKGCGYVRMLTEEEAKEAIETLDGALLRNRVITVSVARPQKQATRPAPRRGKPGPGGRPGKKRPS	failed

From a protein production outcome set (Wang et al. 2014)
